In patent US20240117011A1 (US Dept. of Health and Human Services, published 2024):

Assays:
[1] = target: full-length spike B.1.617.2 (SARS-CoV-2, UniProt P0DTC2 13-1273); assay: cell-based or functional assay
[2] = target: spike of variant B.1.1.345 on pseudotyped lentiviral particles; assay: cell-based or functional assay

B1: A19-46.1 (antibody, V domains shown)
VH: QVQLVESGGGVVQPGRSLRLSCAASGFTLSSYGMHWVRQAPGKGLEWVAVISYDGSNKYYVDSVKGRFTISRDNSKNTLYLQMNSLRAEDTAVYYCARGWAYWELLPDYYYGMDVWGQGTTVTVSS
VL: QTVVTQEPSFSVSPGGTVTLTCGLSSGSVSTAYFPSWYQQTPGQAPRTLIYGTNTRSSGVPDRFSGSILGNKAALTITGAQADDESDYYCVLYMGRGIVVFGGGTKLTVL
With B1 the “neutralization IC50” value [1] was > 10 µg/mL and the “pseudotyped virus neutralization IC50” value [2] was 0.095 µg/mL.
